Read-outs that look alike come from different tables or passages of the source.
Key:
[1] = system: S. aureus RN4850; type: cell-based
[2] = molecular target: AIP-4; assay: Competition ELISA (free native AIP against hapten-BSA coated plates); type: binding, S. aureus
Method: (§1) The optimal concentrations of the AP4-BSA conjugate as well as of each mAb were determined. 96 well ELISA plates were coated with the appropriate amount of AP4-BSA conjugate respectively. The plates were blocked with 4% skim milk, washed and mAbs were added at the predetermined optimal concentration. The plates were washed and free antigen, i.e. the native AIPs 1-4, was added to the wells in a concentration series starting at 100 μM. The plate was incubated for 1 hour at 37° C., thoroughly washed, and goat anti-mouse-horseradish peroxidase (HRP) conjugate (Pierce, Rockford, Ill.) was added. After an incubation period of 1 hour at RT, the plate was thoroughly washed again and the HRP substrate (TMB substrate kit; Pierce) was added, the reaction was allowed to develop for 15 minute and stopped by the addition of 2 M H2SO4. The absorbance at 450 nm was read and the values plotted using GraFit (Erithacus Software Ltd). The free antigen concentration at which the absorbance value is 50% of the maximum absorbance was considered the Kd of the antibody for its antigen.
as §1, with “For the competition ELISA analysis, the optimal concentrations” for “The optimal concentrations”, “of the AP1-BSA, AP3-BSA, or AP4-BSA conjugate,” for “of the AP4-BSA conjugate”, “or AP4-BSA conjugate, as well” for “the AP4-BSA conjugate as well”, “amount of AP1-BSA, AP3-BSA, or AP4-BSA conjugate” for “amount of AP4-BSA conjugate”, “blocked with 4 v % skim milk,” for “blocked with 4% skim milk,”, “for 15 minutes and stopped” for “for 15 minute and stopped”

[3] = molecular target: AIP-3; assay: as above; type: binding, S. aureus
Method: as §1
as §1, with “For the competition ELISA analysis, the optimal concentrations” for “The optimal concentrations”, “of the AP1-BSA, AP3-BSA, or AP4-BSA conjugate,” for “of the AP4-BSA conjugate”, “or AP4-BSA conjugate, as well” for “the AP4-BSA conjugate as well”, “amount of AP1-BSA, AP3-BSA, or AP4-BSA conjugate” for “amount of AP4-BSA conjugate”, “blocked with 4 v % skim milk,” for “blocked with 4% skim milk,”, “for 15 minutes and stopped” for “for 15 minute and stopped”

[4] = molecular target: AIP-1; assay: as above; type: binding, S. aureus; conditions: AP4-BSA coated plates
[5] = molecular target: AIP-2; assay: as above; type: binding, S. aureus; conditions: AP4-BSA coated plates

B1: AP4-4-20: anti-AIP4 human scFv from phage display, expressed in E. coli; probably AP4-20, SEQ ID NO: 53 (protein, listed as Homo sapiens)
scFv: QVQLQQSGAGLLRPSETLSLTCGLYGGSFSGHYWNWIRQSPEKGLVWIGEITHSGTTNYNPSLKSRVITSVDTSKNQYSLKLSFVTPADTAVYYCARGDYYGYWYFDLWGRGTLVTVSSGGGGSGGGGSGGGGSQSVLTQPPSVPVAPGQKVTISCSGSSSNIGNNYVSWYQQLPGTAPKLLIYDTNKRPSGIPDRFAGSKSGTSATLGITGLQTGDEADYYCGTWDSSLSAGVFGGGTKLTVL
B1 was tested, and the “hemolysins secretion (α-hemolysin western analysis)” value [1] was “clear reduction in hemolysins secretion”.

B2: AP4-29E10: murine monoclonal antibody raised against AP4 lactone hapten (antibody, V domains shown)
VH: EVQLQQSGPELEKPGASVKISCKASGHSFTGYNMNWVKQSNDKSLEWIGNIAPYYGVTAYNQKFKGKATLTGDKSSSTAYMQLKSLASEDSAVYYCVLDTSGYASWGQGTLVTVSA
VL: DIVMTQATASLTVSLGQRATISCRASKSVSTSGYSYMHWYQQKPGQPPKLLIYLASNLESGVPARFSGSGSGTDFTLNIHPVEEEDAATYYCQHSREVPYTFGGGTKLELK
With B2 the Kd ([2]; AP4 Sups, AP4-BSA coated plates, competing hybridomas re-tested, average, read-out: AIP4 wt) was ~24 nM, the Kd ([2]; AP4 Sups, tested 5 different times, read-out: AIP4 Kd, variability over 5 different tests) was 2 to 110 nM and the Kd ([2]; selected AP4 mAbs, AP4-BSA coated plates, average of at least two measurements, read-out: Binding constant, AIP-4) was ~24 nM. The Kd ([3]; AP4 Sups, read-out: AIP3 wt) was > 25000 nM, the Kd ([3]; selected AP4 mAbs, average of at least two measurements, read-out: Binding constant, AIP-3) was > 25000 nM and the Kd ([4]; AP4 Sups, competing hybridomas re-tested, average, read-out: AIP1 wt) was ~3000 nM. For the same molecule, the Kd ([4]; selected AP4 mAbs, average of at least two measurements, read-out: Binding constant, AIP-1) was ~3000 nM, the Kd ([5]; AP4 Sups, read-out: AIP2 wt) was > 25000 nM and the Kd ([5]; selected AP4 mAbs, average of at least two measurements, read-out: Binding constant, AIP-2) was > 25000 nM.

Source: US9394371B2, “Antibody-mediated disruption of quorum sensing in bacteria” (The Scripps Research Institute, priority 2007, dated 2016)
